Experimental findings from patent publication US20230057012A1, “TGFB INHIBITORS AND USE THEREOF” (Scholar Rock, Inc., priority 2020, published 2023) are described below.

Some results are limits rather than exact numbers.

In this experiment the target is antigen of FIG. 2 (not named). In words: SPR Biacore, Fab (FIG. 2). A general note: SPR reads the build-up and loss of mass on a sensor chip optically.

B1: Ab46 Fab (Fab, V domains shown)
VH: EVQLLESGGGLVQPGGSLRLSCAASGFTFADYAMTWVRQAPGKGLEWVSAISGSGAATYFADSVKGRFTISRDNSKNTLYLQMNSLRAEDTAVYYCARVSSGHWDYDYWGQGTLVTVSS
VL: DIQLTQSPSSLSASVGDRVTITCRASQSISSYLNWYQQKPGKAPKLLIYAASGLESGVPSRFSGSGSGTDFTLTISSLQPEDFATYYCQQTYGVPLTFGGGTKVEIK
In turn, B1 came in with a times longer bound than the reference antibody greater than 50 fold.
